From publication PMC13397619

B1: NLV2 TCR alpha chain (CDR3α only) (parent)
chain: AGPMKTSYDKVI

Variants of: B1
Assay: T-Switch: Jurkat TCRβ−/− cells expressing a CDR3 saturation-mutagenesis library, stained with two peptide-HLA-A*02:01 tetramers (original and novel peptide) plus anti-CD3, FACS-sorted into four gates, gDNA sequenced
Conditions: tetramers 1 µg/mL, 30 min on ice, SP, DP and SW gates expanded about 10 days between rounds ('two to three rounds of selection' in the Methods), unresolved parent, parent is a CDR3 fragment, scale: fold enrichment, numbering: sequential-on-construct, sequence starts at 1
[1] = with both tetramers (double-negative gate, binds neither): HLA-A*02:01 with … and with …, gate DN: OPPOSITE: higher = more of the variant in the gate that binds neither peptide = LESS binding (or no expression; inferred). Fold enrichment of the CDR3 variant in one FACS gate of a two-tetram
[2] = with both tetramers (double-positive gate): HLA-A*02:01 with … and with …, gate DP: higher = more of the variant in the gate that binds both peptides. Fold enrichment of the CDR3 variant in one FACS gate of a two-tetramer stain. SP/DP/SW gates were expanded and re-sorted bef

Variant: […] (CDR3 as printed); Y8C derived by comparing it with the table's wild-type CDR3 AGPMKTSYDKVI
- enrichment [1]: 1.27
- enrichment [2]: 0

Variant: […] (CDR3 as printed); T6F derived by comparing it with the table's wild-type CDR3 AGPMKTSYDKVI
- enrichment [1]: 1.26
- enrichment [2]: 0

Variant: […] (CDR3 as printed); M4S derived by comparing it with the table's wild-type CDR3 AGPMKTSYDKVI
- enrichment [1]: 0.52
- enrichment [2]: 0

Variant: […] (CDR3 as printed); V11L derived by comparing it with the table's wild-type CDR3 AGPMKTSYDKVI
- enrichment [1]: 0.656
- enrichment [2]: 0

Variant: […] (CDR3 as printed); P3Q derived by comparing it with the table's wild-type CDR3 AGPMKTSYDKVI
- enrichment [1]: 1.16
- enrichment [2]: 0

Variant: […] (CDR3 as printed); M4T derived by comparing it with the table's wild-type CDR3 AGPMKTSYDKVI
- enrichment [1]: 0.518
- enrichment [2]: 0

Variant: […] (CDR3 as printed); Y8M derived by comparing it with the table's wild-type CDR3 AGPMKTSYDKVI
- enrichment [1]: 1.1
- enrichment [2]: 0

Variant: […] (CDR3 as printed); V11H derived by comparing it with the table's wild-type CDR3 AGPMKTSYDKVI
- enrichment [1]: 0.891
- enrichment [2]: 0

Variant: […] (CDR3 as printed); T6Q derived by comparing it with the table's wild-type CDR3 AGPMKTSYDKVI
- enrichment [1]: 1.14
- enrichment [2]: 0

Variant: […] (CDR3 as printed); M4N derived by comparing it with the table's wild-type CDR3 AGPMKTSYDKVI
- enrichment [1]: 0.728
- enrichment [2]: 0

Variant: […] (CDR3 as printed); P3F derived by comparing it with the table's wild-type CDR3 AGPMKTSYDKVI
- enrichment [1]: 1.32
- enrichment [2]: 0

Variant: […] (CDR3 as printed); P3H derived by comparing it with the table's wild-type CDR3 AGPMKTSYDKVI
- enrichment [1]: 0.96
- enrichment [2]: 0

Variant: […] (CDR3 as printed); S7A derived by comparing it with the table's wild-type CDR3 AGPMKTSYDKVI
- enrichment [1]: 0.945
- enrichment [2]: 0

Variant: […] (CDR3 as printed); T6P derived by comparing it with the table's wild-type CDR3 AGPMKTSYDKVI
- enrichment [1]: 0.299
- enrichment [2]: 0

Variant: […] (CDR3 as printed); S7F derived by comparing it with the table's wild-type CDR3 AGPMKTSYDKVI
- enrichment [1]: 1.22
- enrichment [2]: 0

Variant: […] (CDR3 as printed); Y8E derived by comparing it with the table's wild-type CDR3 AGPMKTSYDKVI
- enrichment [1]: 0.485
- enrichment [2]: 3.54

Variant: […] (CDR3 as printed); Y8K derived by comparing it with the table's wild-type CDR3 AGPMKTSYDKVI
- enrichment [1]: 0.928
- enrichment [2]: 0

Variant: […] (CDR3 as printed); Y8V derived by comparing it with the table's wild-type CDR3 AGPMKTSYDKVI
- enrichment [1]: 1.48
- enrichment [2]: 0

Variant: […] (CDR3 as printed); Y8H derived by comparing it with the table's wild-type CDR3 AGPMKTSYDKVI
- enrichment [1]: 0.969
- enrichment [2]: 0

Variant: […] (CDR3 as printed); S7H derived by comparing it with the table's wild-type CDR3 AGPMKTSYDKVI
- enrichment [1]: 0.722
- enrichment [2]: 0

Variant: […] (CDR3 as printed); Y8G derived by comparing it with the table's wild-type CDR3 AGPMKTSYDKVI
- enrichment [1]: 1.22
- enrichment [2]: 0

Variant: […] (CDR3 as printed); V11T derived by comparing it with the table's wild-type CDR3 AGPMKTSYDKVI
- enrichment [1]: 1.12
- enrichment [2]: 0

Variant: […] (CDR3 as printed); T6L derived by comparing it with the table's wild-type CDR3 AGPMKTSYDKVI
- enrichment [1]: 1.1
- enrichment [2]: 0

Variant: […] (CDR3 as printed); Y8F derived by comparing it with the table's wild-type CDR3 AGPMKTSYDKVI
- enrichment [1]: 1.1
- enrichment [2]: 0

Variant: […] (CDR3 as printed); P3N derived by comparing it with the table's wild-type CDR3 AGPMKTSYDKVI
- enrichment [1]: 1.07
- enrichment [2]: 0

Variant: […] (CDR3 as printed); Y8D derived by comparing it with the table's wild-type CDR3 AGPMKTSYDKVI
- enrichment [1]: 0.393
- enrichment [2]: 40.5

Variant: […] (CDR3 as printed); Y8S derived by comparing it with the table's wild-type CDR3 AGPMKTSYDKVI
- enrichment [1]: 0.528
- enrichment [2]: 0

Variant: […] (CDR3 as printed); S7N derived by comparing it with the table's wild-type CDR3 AGPMKTSYDKVI
- enrichment [1]: 1.31
- enrichment [2]: 0

Variant: […] (CDR3 as printed); V11R derived by comparing it with the table's wild-type CDR3 AGPMKTSYDKVI
- enrichment [1]: 1.26
- enrichment [2]: 0

Variant: […] (CDR3 as printed); M4V derived by comparing it with the table's wild-type CDR3 AGPMKTSYDKVI
- enrichment [1]: 0.322
- enrichment [2]: 0

Variant: […] (CDR3 as printed); M4W derived by comparing it with the table's wild-type CDR3 AGPMKTSYDKVI
- enrichment [1]: 0.861
- enrichment [2]: 0

Variant: […] (CDR3 as printed); P3Y derived by comparing it with the table's wild-type CDR3 AGPMKTSYDKVI
- enrichment [1]: 1.08
- enrichment [2]: 0

Variant: […] (CDR3 as printed); V11Q derived by comparing it with the table's wild-type CDR3 AGPMKTSYDKVI
- enrichment [1]: 1.35
- enrichment [2]: 0

Variant: […] (CDR3 as printed); V11D derived by comparing it with the table's wild-type CDR3 AGPMKTSYDKVI
- enrichment [1]: 0.904
- enrichment [2]: 0

Variant: […] (CDR3 as printed); P3R derived by comparing it with the table's wild-type CDR3 AGPMKTSYDKVI
- enrichment [1]: 1.32
- enrichment [2]: 0

Variant: […] (CDR3 as printed); S7V derived by comparing it with the table's wild-type CDR3 AGPMKTSYDKVI
- enrichment [1]: 0.928
- enrichment [2]: 0

Variant: […] (CDR3 as printed); V11S derived by comparing it with the table's wild-type CDR3 AGPMKTSYDKVI
- enrichment [1]: 1.15
- enrichment [2]: 0

Variant: […] (CDR3 as printed); T6Y derived by comparing it with the table's wild-type CDR3 AGPMKTSYDKVI
- enrichment [1]: 1.48
- enrichment [2]: 0

Variant: […] (CDR3 as printed); M4Y derived by comparing it with the table's wild-type CDR3 AGPMKTSYDKVI
- enrichment [1]: 1.15
- enrichment [2]: 0

Variant: […] (CDR3 as printed); T6E derived by comparing it with the table's wild-type CDR3 AGPMKTSYDKVI
- enrichment [1]: 1.78
- enrichment [2]: 0

Variant: […] (CDR3 as printed); M4R derived by comparing it with the table's wild-type CDR3 AGPMKTSYDKVI
- enrichment [1]: 0.913
- enrichment [2]: 0

Variant: […] (CDR3 as printed); T6W derived by comparing it with the table's wild-type CDR3 AGPMKTSYDKVI
- enrichment [1]: 1.07
- enrichment [2]: 0

Variant: […] (CDR3 as printed); V11G derived by comparing it with the table's wild-type CDR3 AGPMKTSYDKVI
- enrichment [1]: 0.956
- enrichment [2]: 0

Variant: […] (CDR3 as printed); P3D derived by comparing it with the table's wild-type CDR3 AGPMKTSYDKVI
- enrichment [1]: 1.14
- enrichment [2]: 0

Variant: […] (CDR3 as printed); V11I derived by comparing it with the table's wild-type CDR3 AGPMKTSYDKVI
- enrichment [1]: 0.74
- enrichment [2]: 0

Variant: […] (CDR3 as printed); S7P derived by comparing it with the table's wild-type CDR3 AGPMKTSYDKVI
- enrichment [1]: 0.995
- enrichment [2]: 0

Variant: […] (CDR3 as printed); M4P derived by comparing it with the table's wild-type CDR3 AGPMKTSYDKVI
- enrichment [1]: 1
- enrichment [2]: 0

Variant: […] (CDR3 as printed); Y8A derived by comparing it with the table's wild-type CDR3 AGPMKTSYDKVI
- enrichment [1]: 0.451
- enrichment [2]: 0

Variant: […] (CDR3 as printed); P3M derived by comparing it with the table's wild-type CDR3 AGPMKTSYDKVI
- enrichment [1]: 1.17
- enrichment [2]: 0

Variant: […] (CDR3 as printed); S7K derived by comparing it with the table's wild-type CDR3 AGPMKTSYDKVI
- enrichment [1]: 1.32
- enrichment [2]: 0

Variant: […] (CDR3 as printed); P3A derived by comparing it with the table's wild-type CDR3 AGPMKTSYDKVI
- enrichment [1]: 1.21
- enrichment [2]: 0

Variant: […] (CDR3 as printed); V11W derived by comparing it with the table's wild-type CDR3 AGPMKTSYDKVI
- enrichment [1]: 0.939
- enrichment [2]: 0

Variant: […] (CDR3 as printed); T6D derived by comparing it with the table's wild-type CDR3 AGPMKTSYDKVI
- enrichment [1]: 1.18
- enrichment [2]: 0

Variant: […] (CDR3 as printed); V11E derived by comparing it with the table's wild-type CDR3 AGPMKTSYDKVI
- enrichment [1]: 1.34
- enrichment [2]: 0

Variant: […] (CDR3 as printed); M4Q derived by comparing it with the table's wild-type CDR3 AGPMKTSYDKVI
- enrichment [1]: 0.551
- enrichment [2]: 0

Variant: […] (CDR3 as printed); V11Y derived by comparing it with the table's wild-type CDR3 AGPMKTSYDKVI
- enrichment [1]: 1.04
- enrichment [2]: 0

Variant: […] (CDR3 as printed); T6K derived by comparing it with the table's wild-type CDR3 AGPMKTSYDKVI
- enrichment [1]: 1.04
- enrichment [2]: 0
